In publication PMC10519980, “Characterization and structure-based protein engineering of a regiospecific saponin acetyltransferase from Astragalus membranaceus” (Nature Communications, 2023):

Substrate: CC(C)(O)[C@@H]1CC[C@](C)([C@H]2[C@@H](O)C[C@@]3(C)[C@@H]4C[C@H](O[C@@H]5O[C@H](CO)[C@@H](O)[C@H](O)[C@H]5O)[C@H]5C(C)(C)[C@@H](O[C@@H]6OC[C@@H](O)[C@H](O)[C@H]6O)CC[C@@]56C[C@@]46CC[C@]23C)O1
Test: UHPLC kinetic assay of acetylation
Format: biochemical, Astragalus propinquus
Details: acetyl-CoA as acyl donor

Protein	Km (paper prints 'toward 1a', read as formation of product 1a (C3'-O-acetylation) from 1) [µM]	Km (paper prints 'toward 1b', read as formation of product 1b (C4'-O-acetylation) from 1) [µM]
AmAT7-3 (Astragalus propinquus; A310G) (protein, full length cloned in pET-28a(+), E. coli BL21(DE3), Ni-NTA; for kinetics and crystals pET28a-TEV plus size exclusion) MSSLRLVSSSTIQAANDNNDDSSQLIDLTVWDLIGLERESIQQGLLYHHPNQVDTPNQIQHLKHSLSSTLSFFPPFAGRLVITEYEDNTATCFIACNNAGALFVHAVAENTTISDILQPNKYVPPIVNSLFSLNGVKNREGTIQPLLVVQVTELVDGIFIGLTVNHVVADGKSFWLFVNSWAEISRGFQKPSKLPTLERWFLNDTDHPIRFSFSMEEEKKKFQSGQLTTRFFHFTRENIAHLKSKANGEVTLGNTERRISSLQALLAHVWRSVVRCERIDPQEVLYYILLIDARTRLIPPLEDDYFGNAGDAGVVIMKAGELLEGGLGNVAWNMNKVISLNSDEKIKNRYKSWLRTPQLPSMGMHTTFASQLLIIANSPRFNVYGNDFGWGKPLAVRSSAENKRDCKIVLFAGAEEGSIDIEVCLPYEILEALGNDAEFLDNHSIG	76.7	
AmAT7-3 (Astragalus propinquus; A310W) (protein, full length cloned in pET-28a(+), E. coli BL21(DE3), Ni-NTA; for kinetics and crystals pET28a-TEV plus size exclusion) MSSLRLVSSSTIQAANDNNDDSSQLIDLTVWDLIGLERESIQQGLLYHHPNQVDTPNQIQHLKHSLSSTLSFFPPFAGRLVITEYEDNTATCFIACNNAGALFVHAVAENTTISDILQPNKYVPPIVNSLFSLNGVKNREGTIQPLLVVQVTELVDGIFIGLTVNHVVADGKSFWLFVNSWAEISRGFQKPSKLPTLERWFLNDTDHPIRFSFSMEEEKKKFQSGQLTTRFFHFTRENIAHLKSKANGEVTLGNTERRISSLQALLAHVWRSVVRCERIDPQEVLYYILLIDARTRLIPPLEDDYFGNAWDAGVVIMKAGELLEGGLGNVAWNMNKVISLNSDEKIKNRYKSWLRTPQLPSMGMHTTFASQLLIIANSPRFNVYGNDFGWGKPLAVRSSAENKRDCKIVLFAGAEEGSIDIEVCLPYEILEALGNDAEFLDNHSIG		168.3
